Three molecules from US20190142971A1, “FORMULATION AND DELIVERY OF MODIFIED NUCLEOSIDE, NUCLEOTIDE, AND NUCLEIC ACID COMPOSITIONS” (ModernaTX, Inc., priority 2013, published 2019) can be followed below.

The test system of one series is C57/BL6 mice. Briefly: Example 47: luciferase mRNA IM, SC, IV in mice, bioluminescence imaging (Tables 76-78). The class given is in vivo. The procedure: Modified RNA was delivered to C57/BL6 mice intramuscularly, subcutaneously, or intravenously to evaluate the bio-distribution of modified RNA using luciferase. A formulation buffer used with all delivery methods contained 150 mM sodium chloride, 2 mM calcium chloride, 2 mM Na+-phosphate which included 1.4 mM monobasic sodium phosphate and 0.6 mM of dibasic sodium phosphate, and 0.5 mM ethylenediaminetetraacetic acid (EDTA) was adjusted using sodium hydroxide to reach a final pH of 6.5 before being filtered and sterilized. A 1× concentration was used as the delivery buffer. To create the lipoplexed solution delivered to the mice, in one vial […] was equilibrated for 10 minutes at room temperature in the delivery buffer and in a second vial 10 μl RNAiMAX™ was equilibrated for 10 minutes at room temperature in the delivery buffer. After equilibrium, the vials were combined and delivery buffer was added to reach a final volume of 100 μl which was then incubated for 20 minutes at room temperature. Luciferin was administered by intraperitoneal injection (IP) at 150 mg/kg to each mouse prior to imaging during the plateau phase of the luciferin exposure curve which was between 15 and 30 minutes. To create luciferin, 1 g of D-luciferin potassium or sodium salt was dissolved in 66.6 ml of distilled phosphate buffer solution (DPBS), not containing Mg2+ or Ca2+, to make a 15 mg/ml solution. The solution was gently mixed and passed through a 0.2 μm syringe filter, before being purged with nitrogen, aliquoted and frozen at −80° C. while being protected from light as much as possible. The solution was thawed using a waterbath if luciferin was not dissolved, gently mixed and kept on ice on the day of dosing.
Whole body images were taken of each mouse 2, 8 and 24 hours after dosing. Tissue images and serum was collected from each mouse 24 hours after dosing. Mice administered doses intravenously had their liver, spleen, kidneys, lungs, heart, peri-renal adipose tissue and thymus imaged. Mice administered doses intramuscularly or subcutaneously had their liver, spleen, kidneys, lungs, peri-renal adipose tissue, and muscle at the injection site. From the whole body images the bioluminescence was measured in photon per second for each route of administration and dosing regimen.
The bioluminescence average for the luciferase expression signals for each group at 2, 8 and 24 hours after dosing are shown in Table 76.
Mice were subcutaneously (S.C.) administered either modified luciferase mRNA (Naked-Luc), lipoplexed modified luciferase mRNA (Lipoplex-luc), lipoplexed modified G-CSF mRNA (Lipoplex-G-CSF) or the formation buffer at a single dose of 50 μg of modified mRNA in an injection volume of 100 μl for each formulation. The bioluminescence average for the luciferase expression signals for each group at 2, 8 and 24 hours after dosing are shown in Table 77.
Mice were intravenously (I.V.) administered either modified luciferase mRNA (Naked-Luc), lipoplexed modified luciferase mRNA (Lipoplex-luc), lipoplexed modified G-CSF mRNA (Lipoplex-G-CSF) or the formation buffer at a single dose of 50 μg of modified mRNA in an injection volume of 100 μl for each formulation. The bioluminescence average for the luciferase expression signal in the spleen from each group at 2 hours after dosing is shown in Table 78.

Another series has as its system BJ fibroblasts. The settings on record: for IFN-beta / IL-6: 250 ng transfected daily for 5 days.
In a further series the test system is mice. The settings on record: for Serum Concentration 8-12 hours after administration: G-CSF; for G-CSF Protein Expression, Conc: LNP IV, mice, 8 hrs.
In a further series the test system is Sprague Dawley rats. The series can be described thus: Example 60: G-CSF/Factor IX mRNA IM in rats, serum G-CSF ELISA (Table 94). The settings on record: I.M., 400 ug in 100 ul, 5% sucrose, 8 hours after injection. In kind it is in vivo. The procedure:
Protein production of modified mRNA was evaluated by delivering modified G-CSF mRNA or modified Factor IX mRNA to female Sprague Dawley rats (n=6). […] Blood was collected 8 hours after injection and the G-CSF protein level in serum was measured by ELISA.

The test system of series [1] is C57BL/6. The series can be described thus: Example 115 (second): human EPO mRNA in mannitol multi-dose, serum EPO (Table 187). The settings on record: IM 2.5 mg/kg per dose. In kind it is in vivo, mice. The procedure:
Serum was collected from the mice 24 hours post the second, fourth, sixth and eighth doses.

The subject of series [2] is C57BL/6. The series can be described thus: Example 115: human EPO mRNA electroporation multi-dose, serum EPO (Table 185). The class given is in vivo, mice. The settings on record: human EPO mRNA in PBS, IM 0.2 mg/kg per dose with EP. The procedure:
(§1) Serum was collected from the mice at 24 hours post the first, second, third and fourth doses.

The test system of series [3] is C57BL/6. Briefly: Example 114: mouse EPO mRNA electroporation multi-dose, serum EPO (Tables 183, 184). The class given is in vivo, mice. The settings on record: mouse EPO mRNA in PBS, IM 0.2 mg/kg per dose with EP. The protocol: as §1
Setting [4] is: serum 24 hours post fourth dose.
The mark [5] stands for this setting: serum 24 hours post second dose.

Like-named read-outs stand apart in the source and are kept apart here.

For “Luciferase: luciferase mRNA, SEQ ID NO: 14, Cap1, fully modified with 5-methylcytosine and pseudouridine”, the Bioluminescence is reported as 224,000 photon/sec in the series on C57/BL6 mice (I.M., Dose 5 ug, 2 hours); 683,000 photon/sec with C57/BL6 mice (I.M., Dose 5 ug, 8 hours); 927,000 photon/sec in the series on C57/BL6 mice (I.M., Dose 5 ug, 24 hours); 446,000 photon/sec with C57/BL6 mice (I.M., Dose 50 ug, 2 hours); 766,000 photon/sec in the series on C57/BL6 mice (I.M., Dose 50 ug, 8 hours); 509,000 photon/sec in the series with C57/BL6 mice (I.M., Dose 50 ug, 24 hours). The Bioluminescence with C57/BL6 mice (S.C., 50 μg, 2 hours) is 3,700,000 photon/sec; with C57/BL6 mice (S.C., 50 μg, 8 hours), 8,060,000 photon/sec; in the series with C57/BL6 mice (S.C., 50 μg, 24 hours), 2,080,000 photon/sec. Besides, in the series with C57/BL6 mice (I.V., 50 μg, 2 hours after dosing), the “Bioluminescence of the Spleen” value is 58,400 photon/sec.

B1: G-CSF: modified mRNA encoding human G-CSF, SEQ ID NO: 4, Cap1, fully modified with 5-methylcytosine and pseudouridine; LNP-formulated in Examples 16-22 (nucleic acid)
chain: GGGAAAUAAGAGAGAAAAGAAGAGUAAGAAGAAAUAUAAGAGCCACCAUGGCCGGUCCCGCGACCCAAAGCCCCAUGAAACUUAUGGCCCUGCAGUUGCUGCUUUGGCACUCGGCCCUCUGGACAGUCCAAGAAGCGACUCCUCUCGGACCUGCCUCAUCGUUGCCGCAGUCAUUCCUUUUGAAGUGUCUGGAGCAGGUGCGAAAGAUUCAGGGCGAUGGAGCCGCACUCCAAGAGAAGCUCUGCGCGACAUACAAACUUUGCCAUCCCGAGGAGCUCGUACUGCUCGGGCACAGCUUGGGGAUUCCCUGGGCUCCUCUCUCGUCCUGUCCGUCGCAGGCUUUGCAGUUGGCAGGGUGCCUUUCCCAGCUCCACUCCGGUUUGUUCUUGUAUCAGGGACUGCUGCAAGCCCUUGAGGGAAUCUCGCCAGAAUUGGGCCCGACGCUGGACACGUUGCAGCUCGACGUGGCGGAUUUCGCAACAACCAUCUGGCAGCAGAUGGAGGAACUGGGGAUGGCACCCGCGCUGCAGCCCACGCAGGGGGCAAUGCCGGCCUUUGCGUCCGCGUUUCAGCGCAGGGCGGGUGGAGUCCUCGUAGCGAGCCACCUUCAAUCAUUUUUGGAAGUCUCGUACCGGGUGCUGAGACAUCUUGCGCAGCCGUGAAGCGCUGCCUUCUGCGGGGCUUGCCUUCUGGCCAUGCCCUUCUUCUCUCCCUUGCACCUGUACCUCUUGGUCUUUGAAUAAAGCCUGAGUAGGAAG
modifications: Cap1, 5-methylcytosine, pseudouridine
As for B1, the “time to cytokine response (IFN-beta, IL-6)” value in the series with BJ fibroblasts was 2 to 3 days. Further, the IFN-beta was 0 pg/mL in the series with BJ fibroblasts (6 hours); 38 pg/mL with BJ fibroblasts (Day 1); 1125 pg/mL in the series on BJ fibroblasts (Day 2); 100 pg/mL in the series with BJ fibroblasts (Day 3); 75 pg/mL in the series with BJ fibroblasts (Day 4); 213 pg/mL with BJ fibroblasts (Day 5). Further, the IL-6 in the series with BJ fibroblasts (6 hours) was 3396 pg/mL; in the series with BJ fibroblasts (Day 1), 3870 pg/mL; in the series with BJ fibroblasts (Day 2) it was 16341 pg/mL; with BJ fibroblasts (Day 3) it was 25983 pg/mL; in the series with BJ fibroblasts (Day 4), 18922 pg/mL; in the series on BJ fibroblasts (Day 5), 15928 pg/mL. Further, the “Serum Concentration 8-12 hours after administration” value is about 20 to 80 pg/mL in the series with mice (IM, 100 ug); ~20,000 pg/ml with mice (IV (LNP), 1 ug); ~1,000,000 pg/ml with mice (IV (LNP), 10 ug); ~5,000,000 pg/ml with mice (IV (LNP), 100 ug); about 30 pg/mL with mice (IV (Lipoplex), 100 ug); about 10 to 40 pg/mL with mice (SC, 100 ug). Moreover, the “G-CSF Protein Expression, Conc” value in the series with mice (dose 10 ug) was 1204.82 ng/mL; in the series with mice (dose 100 ug), 4722.20 ng/mL. Also, the “G-CSF protein in rat serum” value with Sprague Dawley rats stood at 19.37 pg/mL.

B2: EPO: modified mRNA encoding human erythropoietin, SEQ ID NO: 7, Cap1, fully modified with 5-methylcytosine and pseudouridine; LNP NPA-060-1 in Examples 17-22 (nucleic acid)
chain: GGGAAAUAAGAGAGAAAAGAAGAGUAAGAAGAAAUAUAAGAGCCACCAUGGGAGUGCACGAGUGUCCCGCGUGGUUGUGGUUGCUGCUGUCGCUCUUGAGCCUCCCACUGGGACUGCCUGUGCUGGGGGCACCACCCAGAUUGAUCUGCGACUCACGGGUACUUGAGAGGUACCUUCUUGAAGCCAAAGAAGCCGAAAACAUCACAACCGGAUGCGCCGAGCACUGCUCCCUCAAUGAGAACAUUACUGUACCGGAUACAAAGGUCAAUUUCUAUGCAUGGAAGAGAAUGGAAGUAGGACAGCAGGCCGUCGAAGUGUGGCAGGGGCUCGCGCUUUUGUCGGAGGCGGUGUUGCGGGGUCAGGCCCUCCUCGUCAACUCAUCACAGCCGUGGGAGCCCCUCCAACUUCAUGUCGAUAAAGCGGUGUCGGGGCUCCGCAGCUUGACGACGUUGCUUCGGGCUCUGGGCGCACAAAAGGAGGCUAUUUCGCCGCCUGACGCGGCCUCCGCGGCACCCCUCCGAACGAUCACCGCGGACACGUUUAGGAAGCUUUUUAGAGUGUACAGCAAUUUCCUCCGCGGAAAGCUGAAAUUGUAUACUGGUGAAGCGUGUAGGACAGGGGAUCGCUGAUAAGCUGCCUUCUGCGGGGCUUGCCUUCUGGCCAUGCCCUUCUUCUCUCCCUUGCACCUGUACCUCUUGGUCUUUGAAUAAAGCCUGAGUAGGAAG
modifications: Cap1, 5-methylcytosine, pseudouridine
Take B2: in the series on C57BL/6 [1] (serum 24 hours post eighth dose), the “Eighth Dose EPO” value was 7.9 pg/mL. In addition, the “Fourth Dose EPO” value with C57BL/6 [1] (setting [4]) amounted to 44.3 pg/mL; in the series on C57BL/6 [2] (setting [4]), 139.9 pg/mL; in the series on C57BL/6 [3] (setting [4]) it was 258.1 pg/mL. The “Second Dose EPO” value with C57BL/6 [1] (setting [5]) was found to be 43.5 pg/mL; with C57BL/6 [2] (setting [5]), 27.9 pg/mL; in the series with C57BL/6 [3] (setting [5]), 357.8 pg/mL. The “Sixth Dose EPO” value in the series on C57BL/6 [1] (serum 24 hours post sixth dose) stood at 46.3 pg/mL. In addition, the “First Dose EPO” value is 9.5 pg/mL in the series with C57BL/6 [2] (serum 24 hours post first dose) and 151.9 pg/mL with C57BL/6 [3] (serum 24 hours post first dose). Moreover, the “Third Dose EPO” value in the series on C57BL/6 [2] (serum 24 hours post third dose) came to 284.5 pg/mL; in the series with C57BL/6 [3] (serum 24 hours post third dose), 898.5 pg/mL.
